Experimental data published in the supplement of paper PMC10724198.
± gives the standard deviation of the averaged measurements.

Tested on: Saccharomyces cerevisiae
Assay: protein stability index of tFT-peptide fusion (C-terminal peptide) (PSI (0-1 scale)); higher = more stable (slower turnover)
Conditions: genetic background: wild type; temperature: 30 C
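Further: PSI is a weighted mean of sequencing reads over stability bins, variants kept only with over 10 reads, mCherry proximal and sfGFP distal, peptide attached via GGGS linker.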

FGSRYLGVVSGC
protein stability index: 0.656 ± 0.037

GGIRGEGEVGKR
protein stability index: 0.69 ± 0.021

QLFAYFLGAVIL
protein stability index: 0.611 ± 0.023

RKNGEDLKKRGT
protein stability index: 0.726 ± 0.077

RGVIWLVCGGPC
protein stability index: 0.54 ± 0.032

AATDWFHLPFPP
protein stability index: 0.682 ± 0.15

SPPCPLPLPPPP
protein stability index: 0.626 ± 0.057

LPPPPAPSSAPL
protein stability index: 0.735 ± 0.14

RYLDPPLPLPRT
protein stability index: 0.6921 ± 0.0046

SWFSPMCTTSPR
protein stability index: 0.677 ± 0.04

IRLSCGRVGGVV
protein stability index: 0.648 ± 0.012

GRERGTEKGESG
protein stability index: 0.631 ± 0.11

RTKMKERTCEEG
protein stability index: 0.697 ± 0.02

SVDRVIPQERQS
protein stability index: 0.697 ± 0.013

STGRTSVNLCFS
protein stability index: 0.706 ± 0.041

TRPSGSFLALPP
protein stability index: 0.685 ± 0.05

RRYWVLSTVPVL
protein stability index: 0.615 ± 0.028

LMYGSVGVRGGE
protein stability index: 0.76 ± 0.064

GFGPPGPCSYVR
protein stability index: 0.691 ± 0.042

GPRRLNAYADPF
protein stability index: 0.722 ± 0.082

WGGGGVLEVLLG
protein stability index: 0.531 ± 0.008

LIKKSFYMKIIK
protein stability index: 0.59 ± 0.057

HPPPARSPPSLP
protein stability index: 0.741 ± 0.041

PEGPPRPPLHPS
protein stability index: 0.696 ± 0.019

CPTHPLFLDSYV
protein stability index: 0.676 ± 0.026

PSPHLHPPPLPP
protein stability index: 0.641 ± 0.0047

TRNGQKVGGVGA
protein stability index: 0.725 ± 0.029

WARDLGAVAVQT
protein stability index: 0.518 ± 0.075

CLCYAWVPAPLF
protein stability index: 0.604 ± 0.018

FRFTSSPVFSWL
protein stability index: 0.708 ± 0.014

GWVREAVGFRGG
protein stability index: 0.687 ± 0.028

PSLPPRPQLVHS
protein stability index: 0.596 ± 0.017

LPPRPLPPPSRT
protein stability index: 0.7 ± 0.076

SFSPLHVGPSPL
protein stability index: 0.6843 ± 0.0048

LPSSFLPVPAPP
protein stability index: 0.6976 ± 0.00082

CGWTATRTCGLV
protein stability index: 0.7541 ± 0.0063

CFAFRPLLPSSP
protein stability index: 0.686 ± 0.0086

RPSLPPSPLLRP
protein stability index: 0.729 ± 0.0049

IKKIEKANRKTK
protein stability index: 0.661 ± 0.034

SPSPPLPSPRPP
protein stability index: 0.594 ± 0.094

PLSTPLSPALLS
protein stability index: 0.602 ± 0.023

GGRRVWAGRTGV
protein stability index: 0.734 ± 0.077

QKKKKKKKRKKT
protein stability index: 0.59 ± 0.062

RPSPPPLRPFVL
protein stability index: 0.576 ± 0.025

WFFVADVFKSWL
protein stability index: 0.704 ± 0.039

PPPLPPPLPLCS
protein stability index: 0.675 ± 0.023

QKDLVGSKSEYE
protein stability index: 0.735 ± 0.058

AWGARWVCVMGG
protein stability index: 0.626 ± 0.027

PRPLLFPLIFTP
protein stability index: 0.627 ± 0.026

FSASLLWFKEFW
protein stability index: 0.685 ± 0.024

SCPPSARLSNTC
protein stability index: 0.7506 ± 0.00063

STWSLLKVGPAR
protein stability index: 0.6785 ± 0.0015

SNLHCLQRGYSV
protein stability index: 0.725 ± 0.011

CSCGRGRLARRL
protein stability index: 0.686 ± 0.13

LPPPPRPPPPPP
protein stability index: 0.663 ± 0.021

VTLFGVFQGFVG
protein stability index: 0.709 ± 0.02

SVLRRKDKGKRG
protein stability index: 0.654 ± 0.014

PWRPRMAGVDYR
protein stability index: 0.867 ± 0.13

WSRVQFFYFCWI
protein stability index: 0.547 ± 0.051

SPPPLDSFPFIT
protein stability index: 0.659 ± 0.051

GRGRLLYWEKWL
protein stability index: 0.66 ± 0.03

LCGFLPSFHLLY
protein stability index: 0.679 ± 0.0088

WEACLGRPEAGM
protein stability index: 0.724 ± 0.064

KIMKINIYQKKR
protein stability index: 0.691 ± 0.028

GRGLSSLCRRFS
protein stability index: 0.691 ± 0.044

DDSQKLTNNNEG
protein stability index: 0.744 ± 0.013

LPCGRGQLVGSQ
protein stability index: 0.677 ± 0.032

SSPTSSAPPPFL
protein stability index: 0.697 ± 0.022

EKGRSGVNILRV
protein stability index: 0.653 ± 0.011

GAGGSAGARSAE
protein stability index: 0.702 ± 0.03

SGNSPTRDRLRE
protein stability index: 0.684 ± 0.16

GWSLDYGSTGDR
protein stability index: 0.812 ± 0.018

YVIAMVYGAPWS
protein stability index: 0.60667 ± 0.00018

ARFYPPLPTDSL
protein stability index: 0.708 ± 0.056

SSLPSSLSPLTS
protein stability index: 0.699 ± 0.024

LSPGQVLPWGVL
protein stability index: 0.643 ± 0.069

FLSPPSPWPSFP
protein stability index: 0.688 ± 0.059

MWAEWLCHGDRN
protein stability index: 0.742 ± 0.068

EGKKEKKGSKGE
protein stability index: 0.708 ± 0.052

EKKKQKHKKKKN
protein stability index: 0.706 ± 0.031

LPGGRRPSQCPA
protein stability index: 0.645 ± 0.01

LRCNAQSMICLT
protein stability index: 0.633 ± 0.081

GGRIRLLTYFGR
protein stability index: 0.601 ± 0.042

RLRDMPRDLTFW
protein stability index: 0.706 ± 0.12

GGENGLGGLGVG
protein stability index: 0.626 ± 0.14

WAARLDISQSPI
protein stability index: 0.754 ± 0.011

PPHPVTLSPART
protein stability index: 0.614 ± 0.04

ENQKKSKTNRKK
protein stability index: 0.658 ± 0.036

LLPFCPPCLRSL
protein stability index: 0.648 ± 0.018

QRWTAGTQIRPV
protein stability index: 0.706 ± 0.0086

RRGRNGGKADLR
protein stability index: 0.657 ± 0.0073

DSKDLTPATQVS
protein stability index: 0.699 ± 0.013

ELDFFIGYGVFC
protein stability index: 0.626 ± 0.0082

SYLFRLLFATLP
protein stability index: 0.601 ± 0.033

ILLSLSRWGMAG
protein stability index: 0.723 ± 0.024

VRRQADRAGRIS
protein stability index: 0.696 ± 0.073

SPARLHLPPFSP
protein stability index: 0.717 ± 0.016

SSLGNSFYLSPH
protein stability index: 0.683 ± 0.033

SAIGVGGGGTGG
protein stability index: 0.676 ± 0.0082

AGCRFRWHTVDC
protein stability index: 0.648 ± 0.073

EKLADTTKRRRV
protein stability index: 0.724 ± 0.026

SFPPPPFPPLFL
protein stability index: 0.722 ± 0.023

RPAIPPATPPPP
protein stability index: 0.649 ± 0.027

GAGRVRAPGRWP
protein stability index: 0.6965 ± 0.0035

LPRVSMTPTRVG
protein stability index: 0.6535 ± 0.0029

QMTSRVPIGRLY
protein stability index: 0.696 ± 0.0035

LLHEAFSSPLSS
protein stability index: 0.7164 ± 0.0068

KHKRDRNIYKVT
protein stability index: 0.679 ± 0.026

LDFLLSMVHGKK
protein stability index: 0.702 ± 0.022

WWFGGETGVGGR
protein stability index: 0.712 ± 0.039

ESSVLGFWIMSL
protein stability index: 0.629 ± 0.041

VSGFPHASSSPT
protein stability index: 0.6225 ± 0.0052

PTLSSRPPPYPR
protein stability index: 0.642 ± 0.048

IRLYGQATFRWE
protein stability index: 0.625 ± 0.086

LPLALSAPPAQP
protein stability index: 0.683 ± 0.042

GPGCDDDASGSV
protein stability index: 0.686 ± 0.013

SPHPTAPFVSTL
protein stability index: 0.68 ± 0.087

GWVVGRGRLGVV
protein stability index: 0.655 ± 0.028

CWRVGRERRGAG
protein stability index: 0.604 ± 0.013

HLFSLGSCLSDP
protein stability index: 0.731 ± 0.12

PLAFFSTRPTPF
protein stability index: 0.697 ± 0.03

PLPRLSPFSHPP
protein stability index: 0.701 ± 0.052

YYLQPTCLCFWE
protein stability index: 0.698 ± 0.0041

GPGRIPLTSALP
protein stability index: 0.63968 ± 0.00049

SQLERSNHGWVR
protein stability index: 0.651 ± 0.064

SCLVWTWVSSVL
protein stability index: 0.573 ± 0.067

LRGILGTLINGV
protein stability index: 0.609 ± 0.097
